Target: Myc-N1
Experiment: co-immunoprecipitation (IP with Myc antibody), quantification of western blot bands
Conditions: HEK293 cells, more than 3 independent experiments, read off a plot

Fam65b-GFP (from UniProt Q80U16) RL/AA
response (relative intensity) (control (without HA-RhoC), parent: est. 1.0): 0.47 | response (relative intensity) (with HA-RhoC co-expressed, parent: est. 1.7): 0.2

From PMC4898930
